The values below come from patent publication US20040013664A1.

The assay concerns the target Fas receptor on human cells (Jurkat, HT-29) (human) (UniProt P25445). Nature of the assay: cell-based or functional assay.

Sequence of Fas receptor on human cells (Jurkat, HT-29) (human) (P25445 26-335): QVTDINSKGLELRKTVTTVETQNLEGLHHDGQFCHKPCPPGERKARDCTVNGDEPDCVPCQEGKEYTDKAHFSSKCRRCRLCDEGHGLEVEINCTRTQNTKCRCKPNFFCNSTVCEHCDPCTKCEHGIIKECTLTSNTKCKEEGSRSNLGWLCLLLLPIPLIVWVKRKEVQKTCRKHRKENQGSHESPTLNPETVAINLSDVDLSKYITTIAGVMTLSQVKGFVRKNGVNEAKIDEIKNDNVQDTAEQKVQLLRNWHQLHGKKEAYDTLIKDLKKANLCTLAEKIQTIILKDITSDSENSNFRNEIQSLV

Consider “sFas ligand (Alexis Corporation, FLAG epitope tag at its N-terminus) (from UniProt P48023 103-281)”, for which the % Cells undergoing apoptosis (Jurkat, annexin/propidium iodide FACS); FasL (20 ng) is 8.87% and the decrease in Jurkat cell viability (ALOMAR blue) is 50%.
